Legend:
Assay in all cases: holdup assay
Parameters in all cases: key: below the threshold = too weak to quantify, mostly under pKd 3.1 to 4
APBA1_2, Q02410 = target: T1, APBA1_2, Q02410
T1 sequence (Q02410 742-832, limits assumed, looked up): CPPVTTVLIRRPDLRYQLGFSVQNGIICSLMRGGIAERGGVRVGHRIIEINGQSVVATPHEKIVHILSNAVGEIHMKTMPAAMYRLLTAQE

APBA2_1, Q99767 = target: T2, APBA2_1, Q99767
T2 sequence (Q99767 563-664, limits assumed, looked up): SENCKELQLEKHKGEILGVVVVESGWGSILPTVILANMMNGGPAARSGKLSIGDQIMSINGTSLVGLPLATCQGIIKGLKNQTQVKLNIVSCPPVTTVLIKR

CASK, O14936 = target: CASK, O14936
DLG1_3, Q12959 = target: DLG1_3, Q12959
DLG3_3, Q92796 = target: T3, DLG3_3, Q92796
T3 sequence (Q92796 374-475, limits assumed, looked up): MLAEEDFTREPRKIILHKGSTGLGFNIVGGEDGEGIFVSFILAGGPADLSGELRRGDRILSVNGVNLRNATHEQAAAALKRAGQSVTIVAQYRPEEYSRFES

DLG4_3, P78352 = target: DLG4_3, P78352
DVL3, Q92997 = target: T4, DVL3, Q92997
T4 sequence (Q92997 244-331, limits assumed, looked up): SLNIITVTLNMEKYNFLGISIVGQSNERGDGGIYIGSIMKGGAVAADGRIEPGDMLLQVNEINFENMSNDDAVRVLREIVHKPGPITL

FRMPD1, Q5SYB0 = target: T5, FRMPD1, Q5SYB0
T5 sequence (Q5SYB0 52-145, limits assumed, looked up): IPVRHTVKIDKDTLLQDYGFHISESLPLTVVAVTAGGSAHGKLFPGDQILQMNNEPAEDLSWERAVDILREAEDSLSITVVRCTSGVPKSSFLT

FRMPD2_1, Q68DX3 = target: FRMPD2_1, Q68DX3
FRMPD2_2, Q68DX3 = target: FRMPD2_2, Q68DX3
FRMPD2_3, Q68DX3 = target: FRMPD2_3, Q68DX3
GOPC, Q9HD26 = target: GOPC, Q9HD26
GORASP1, Q9BQQ3 = target: GORASP1, Q9BQQ3
GRIP1_7, Q9Y3R0 = target: T6, GRIP1_7, Q9Y3R0
T6 sequence (Q9Y3R0 999-1096, limits assumed, looked up): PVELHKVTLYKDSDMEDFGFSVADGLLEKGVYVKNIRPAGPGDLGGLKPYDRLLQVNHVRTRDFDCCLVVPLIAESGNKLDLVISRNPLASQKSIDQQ

Inadl_1, Q8NI35 = target: Inadl_1, Q8NI35
Inadl_5, Q8NI35 = target: Inadl_5, Q8NI35
LAP2, Q96RT1 = target: LAP2, Q96RT1
LIN7C, Q9NUP9 = target: T7, LIN7C, Q9NUP9
T7 sequence (Q9NUP9 88-185, limits assumed, looked up): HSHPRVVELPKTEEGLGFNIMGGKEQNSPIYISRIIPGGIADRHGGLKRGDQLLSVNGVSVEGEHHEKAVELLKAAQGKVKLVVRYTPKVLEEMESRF

LNX1_3, Q8TBB1 = target: LNX1_3, Q8TBB1
MAGI2_4, Q86UL8 = target: MAGI2_4, Q86UL8
MAGI2_6, Q86UL8 = target: MAGI2_6, Q86UL8
MPDZ_5, O75970 = target: T8, MPDZ_5, O75970
T8 sequence (O75970 695-796, limits assumed, looked up): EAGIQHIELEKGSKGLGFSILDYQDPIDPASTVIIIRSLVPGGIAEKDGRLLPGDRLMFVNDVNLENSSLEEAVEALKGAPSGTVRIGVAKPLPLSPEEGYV

NOS1, P29475 = target: NOS1, P29475
PDZD7_3, Q9H5P4 = target: T9, PDZD7_3, Q9H5P4
T9 sequence (Q9H5P4 857-944, limits assumed, looked up): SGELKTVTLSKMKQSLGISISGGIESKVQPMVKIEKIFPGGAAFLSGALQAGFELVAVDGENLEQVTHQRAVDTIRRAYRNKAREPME

SCRIB_2, Q14160 = target: SCRIB_2, Q14160
SHANK1, Q9Y566 = target: T10, SHANK1, Q9Y566
T10 sequence (Q9Y566 658-767, limits assumed, looked up): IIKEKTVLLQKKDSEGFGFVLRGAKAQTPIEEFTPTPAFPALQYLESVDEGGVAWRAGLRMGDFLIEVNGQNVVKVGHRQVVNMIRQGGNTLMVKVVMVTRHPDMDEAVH

SNTB1, Q13884 = target: T11, SNTB1, Q13884
T11 sequence (Q13884 107-205, limits assumed, looked up): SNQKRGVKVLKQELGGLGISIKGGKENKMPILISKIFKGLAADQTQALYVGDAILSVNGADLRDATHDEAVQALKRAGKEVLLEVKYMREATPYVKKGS

[1] = plain residues with an end cap or a label only (N-terminal biotin on a linker: ttds)
[2] = plain residues with an end cap or a label only (N-terminal biotin on a linker: ado-ado)
[3] = plain residues with an end cap or a label only (N-terminal biotin on a linker: ahx)

Chain of DLG4_3, P78352 (P78352 306-403): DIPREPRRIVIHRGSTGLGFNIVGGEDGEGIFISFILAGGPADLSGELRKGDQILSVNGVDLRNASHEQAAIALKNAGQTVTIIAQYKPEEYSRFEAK
Chain of MAGI2_6, Q86UL8 (Q86UL8 1141-1229): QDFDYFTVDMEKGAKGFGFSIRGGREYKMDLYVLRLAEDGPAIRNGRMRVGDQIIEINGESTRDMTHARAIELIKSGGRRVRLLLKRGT
Chain of LAP2, Q96RT1 (Q96RT1 other isoform, or with tags, fused parts or gaps): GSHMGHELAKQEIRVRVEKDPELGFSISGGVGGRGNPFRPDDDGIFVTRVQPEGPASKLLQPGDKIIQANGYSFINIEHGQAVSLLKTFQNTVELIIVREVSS
Chain of FRMPD2_1, Q68DX3 (Q68DX3 770-861): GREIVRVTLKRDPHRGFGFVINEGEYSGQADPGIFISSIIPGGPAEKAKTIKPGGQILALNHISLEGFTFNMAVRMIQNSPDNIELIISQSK
Chain of Inadl_1, Q8NI35 (Q8NI35 113-229): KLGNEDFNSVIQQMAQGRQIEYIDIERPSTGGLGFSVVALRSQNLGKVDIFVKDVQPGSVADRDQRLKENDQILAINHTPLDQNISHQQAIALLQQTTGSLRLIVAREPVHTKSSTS
Chain of FRMPD2_3, Q68DX3 (Q68DX3 1073-1166): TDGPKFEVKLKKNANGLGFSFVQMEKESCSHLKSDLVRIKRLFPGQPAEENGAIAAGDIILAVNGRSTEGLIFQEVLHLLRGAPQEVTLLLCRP
Chain of CASK, O14936 (O14936 487-570): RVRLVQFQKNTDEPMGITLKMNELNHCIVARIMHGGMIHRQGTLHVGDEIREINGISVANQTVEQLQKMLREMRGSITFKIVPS
Chain of DLG1_3, Q12959 (Q12959 457-571): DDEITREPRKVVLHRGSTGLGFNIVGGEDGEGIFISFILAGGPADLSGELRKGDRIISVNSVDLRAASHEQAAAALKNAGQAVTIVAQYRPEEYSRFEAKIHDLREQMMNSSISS
Chain of FRMPD2_2, Q68DX3 (Q68DX3 944-1038): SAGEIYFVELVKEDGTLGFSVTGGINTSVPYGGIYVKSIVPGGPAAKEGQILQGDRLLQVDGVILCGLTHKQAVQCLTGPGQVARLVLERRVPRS
Chain of Inadl_5, Q8NI35 (Q8NI35 673-780): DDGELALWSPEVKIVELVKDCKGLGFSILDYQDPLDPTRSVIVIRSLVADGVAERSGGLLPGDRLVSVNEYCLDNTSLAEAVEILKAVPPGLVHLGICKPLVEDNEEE
Chain of SCRIB_2, Q14160 (Q14160 857-960): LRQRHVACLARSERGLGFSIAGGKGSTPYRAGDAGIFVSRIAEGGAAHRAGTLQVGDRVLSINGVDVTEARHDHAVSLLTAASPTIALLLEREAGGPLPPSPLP
Chain of NOS1, P29475 (P29475 9-101): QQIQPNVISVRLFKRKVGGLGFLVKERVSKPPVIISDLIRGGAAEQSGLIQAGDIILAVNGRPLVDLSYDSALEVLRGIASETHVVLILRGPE
Chain of GORASP1, Q9BQQ3 (Q9BQQ3 1-208): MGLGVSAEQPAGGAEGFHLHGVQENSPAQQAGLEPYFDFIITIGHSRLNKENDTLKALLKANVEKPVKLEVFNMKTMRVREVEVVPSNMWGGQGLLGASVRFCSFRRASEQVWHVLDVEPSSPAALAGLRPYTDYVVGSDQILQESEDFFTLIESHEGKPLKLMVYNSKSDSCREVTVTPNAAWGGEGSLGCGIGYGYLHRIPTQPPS
Chain of MAGI2_4, Q86UL8 (Q86UL8 772-865): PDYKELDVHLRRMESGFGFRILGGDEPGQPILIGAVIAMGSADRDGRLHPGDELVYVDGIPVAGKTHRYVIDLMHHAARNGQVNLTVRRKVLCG
Chain of LNX1_3, Q8TBB1 (Q8TBB1 500-596): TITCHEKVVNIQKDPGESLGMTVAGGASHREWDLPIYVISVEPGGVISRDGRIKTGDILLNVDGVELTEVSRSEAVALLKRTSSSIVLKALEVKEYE

B1: CBP, Q92793 (peptide)
chain: TGDTLEKFVEGL
For B1, the pKd (APBA1_2, Q02410; [1]) was “below the threshold”, the pKd (APBA2_1, Q99767; [1]) was “below the threshold” and the pKd (CASK, O14936; [1]) was “below the threshold”. The pKd (DLG1_3, Q12959; [1]) was “below the threshold”, the pKd (DLG3_3, Q92796; [1]) was “below the threshold” and the pKd (DLG4_3, P78352; [1]) was “below the threshold”. For the same binder, the pKd (DVL3, Q92997; [1]) was “below the threshold”, the pKd (FRMPD1, Q5SYB0; [1]) was “below the threshold” and the pKd (FRMPD2_1, Q68DX3; [1]) was “below the threshold”. For the same binder, the pKd (FRMPD2_2, Q68DX3; [1]) was “below the threshold”, the pKd (FRMPD2_3, Q68DX3; [1]) was “below the threshold” and the pKd (GOPC, Q9HD26; [1]) was “below the threshold”. For the same binder, the pKd (GORASP1, Q9BQQ3; [1]) was “below the threshold”, the pKd (GRIP1_7, Q9Y3R0; [1]) was “below the threshold” and the pKd (Inadl_1, Q8NI35; [1]) was “below the threshold”. The pKd (Inadl_5, Q8NI35; [1]) was “below the threshold”, the pKd (LAP2, Q96RT1; [1]) was “below the threshold” and the pKd (LIN7C, Q9NUP9; [1]) was “below the threshold”. The pKd (LNX1_3, Q8TBB1; [1]) was “below the threshold”, the pKd (MAGI2_4, Q86UL8; [1]) was “below the threshold” and the pKd (MAGI2_6, Q86UL8; [1]) was “below the threshold”. For the same binder, the pKd (MPDZ_5, O75970; [1]) was “below the threshold”, the pKd (NOS1, P29475; [1]) was “below the threshold” and the pKd (PDZD7_3, Q9H5P4; [1]) was “below the threshold”. The pKd (SCRIB_2, Q14160; [1]) was “below the threshold”, the pKd (SHANK1, Q9Y566; [1]) was “below the threshold” and the pKd (SNTB1, Q13884; [1]) was “below the threshold”.

B2: NRXN3_rs746444206, Q9Y4C0 (peptide)
chain: QKNKDKEYYV
In the case of B2, the pKd (APBA1_2, Q02410; [2]) is reported as 4.02, the pKd (APBA2_1, Q99767; [2]) is reported as “below the threshold” and the pKd (CASK, O14936; [2]) is reported as 3.55. The pKd (DLG1_3, Q12959; [2]) was “below the threshold”, the pKd (DLG3_3, Q92796; [2]) was “below the threshold” and the pKd (DLG4_3, P78352; [2]) was “below the threshold”. For the same binder, the pKd (DVL3, Q92997; [2]) was 3.85, the pKd (FRMPD1, Q5SYB0; [2]) was “below the threshold” and the pKd (FRMPD2_1, Q68DX3; [2]) was 3.69. For the same binder, the pKd (FRMPD2_2, Q68DX3; [2]) was 3.62, the pKd (FRMPD2_3, Q68DX3; [2]) was 4.23 and the pKd (GOPC, Q9HD26; [2]) was “below the threshold”. It also gave a pKd (GORASP1, Q9BQQ3; [2]) of 4.12, a pKd (GRIP1_7, Q9Y3R0; [2]) of 4.55 and a pKd (Inadl_1, Q8NI35; [2]) of 3.51. For the same binder, the pKd (Inadl_5, Q8NI35; [2]) was 4.55, the pKd (LAP2, Q96RT1; [2]) was “below the threshold” and the pKd (LIN7C, Q9NUP9; [2]) was 4.08. The pKd (LNX1_3, Q8TBB1; [2]) was 3.99, the pKd (MAGI2_4, Q86UL8; [2]) was 3.54 and the pKd (MAGI2_6, Q86UL8; [2]) was “below the threshold”. For the same binder, the pKd (MPDZ_5, O75970; [2]) was 4.34, the pKd (NOS1, P29475; [2]) was 3.88 and the pKd (PDZD7_3, Q9H5P4; [2]) was “below the threshold”. For the same binder, the pKd (SCRIB_2, Q14160; [2]) was “below the threshold”, the pKd (SHANK1, Q9Y566; [2]) was “below the threshold” and the pKd (SNTB1, Q13884; [2]) was “below the threshold”.

B3: APC, P25054 (peptide)
chain: HSGSYLVTSV
In the case of B3, the pKd (APBA1_2, Q02410; [3]) is reported as 4.03, the pKd (APBA2_1, Q99767; [3]) is reported as “below the threshold” and the pKd (CASK, O14936; [3]) is reported as “below the threshold”. It also gave a pKd (DLG1_3, Q12959; [3]) of 4.88, a pKd (DLG3_3, Q92796; [3]) of 4.71 and a pKd (DLG4_3, P78352; [3]) of 4.5. For the same binder, the pKd (DVL3, Q92997; [3]) was “below the threshold”, the pKd (FRMPD1, Q5SYB0; [3]) was “below the threshold” and the pKd (FRMPD2_1, Q68DX3; [3]) was “below the threshold”. For the same binder, the pKd (FRMPD2_2, Q68DX3; [3]) was 4.61, the pKd (FRMPD2_3, Q68DX3; [3]) was “below the threshold” and the pKd (GOPC, Q9HD26; [3]) was 4.3. For the same binder, the pKd (GORASP1, Q9BQQ3; [3]) was 3.61, the pKd (GRIP1_7, Q9Y3R0; [3]) was “below the threshold” and the pKd (Inadl_1, Q8NI35; [3]) was “below the threshold”. The pKd (Inadl_5, Q8NI35; [3]) was “below the threshold”, the pKd (LAP2, Q96RT1; [3]) was 4.87 and the pKd (LIN7C, Q9NUP9; [3]) was 3.72. For the same binder, the pKd (LNX1_3, Q8TBB1; [3]) was “below the threshold”, the pKd (MAGI2_4, Q86UL8; [3]) was 4.17 and the pKd (MAGI2_6, Q86UL8; [3]) was 4.85. The pKd (MPDZ_5, O75970; [3]) was “below the threshold”, the pKd (NOS1, P29475; [3]) was 3.68 and the pKd (PDZD7_3, Q9H5P4; [3]) was 5.11. For the same binder, the pKd (SCRIB_2, Q14160; [3]) was 4.33, the pKd (SHANK1, Q9Y566; [3]) was 4.1 and the pKd (SNTB1, Q13884; [3]) was 4.05.

B4: NCBP2L, A6PVI3 (peptide)
chain: RGGFGRQTQI
With B4 the pKd (APBA1_2, Q02410; [2]) was “below the threshold”, the pKd (APBA2_1, Q99767; [2]) was “below the threshold” and the pKd (CASK, O14936; [2]) was “below the threshold”. It also gave a pKd (DLG1_3, Q12959; [2]) of 4.24, a pKd (DLG3_3, Q92796; [2]) of 3.82 and a pKd (DLG4_3, P78352; [2]) of 4.17. For the same binder, the pKd (DVL3, Q92997; [2]) was “below the threshold”, the pKd (FRMPD1, Q5SYB0; [2]) was “below the threshold” and the pKd (FRMPD2_1, Q68DX3; [2]) was “below the threshold”. For the same binder, the pKd (FRMPD2_2, Q68DX3; [2]) was “below the threshold”, the pKd (FRMPD2_3, Q68DX3; [2]) was “below the threshold” and the pKd (GOPC, Q9HD26; [2]) was 4.05. The pKd (GORASP1, Q9BQQ3; [2]) was 3.53, the pKd (GRIP1_7, Q9Y3R0; [2]) was “below the threshold” and the pKd (Inadl_1, Q8NI35; [2]) was “below the threshold”. The pKd (Inadl_5, Q8NI35; [2]) was “below the threshold”, the pKd (LAP2, Q96RT1; [2]) was “below the threshold” and the pKd (LIN7C, Q9NUP9; [2]) was 3.68. The pKd (LNX1_3, Q8TBB1; [2]) was “below the threshold”, the pKd (MAGI2_4, Q86UL8; [2]) was “below the threshold” and the pKd (MAGI2_6, Q86UL8; [2]) was 3.78. For the same binder, the pKd (MPDZ_5, O75970; [2]) was “below the threshold”, the pKd (NOS1, P29475; [2]) was 4.08 and the pKd (PDZD7_3, Q9H5P4; [2]) was 4.38. For the same binder, the pKd (SCRIB_2, Q14160; [2]) was “below the threshold”, the pKd (SHANK1, Q9Y566; [2]) was “below the threshold” and the pKd (SNTB1, Q13884; [2]) was 4.51.
